Source: patent publication US20240200091A1, “USE OF PROTOPORPHYRINOGEN OXIDASE” (BEIJING DABEINONG BIOTECHNOLOGY CO., LTD., priority 2021, published 2024)

Columns and labels:
Assay type in all cases: in vivo
[1] = test system: transgenic soybean plants; experiment: saflufenacil tolerance of transgenic soybean plants (spray, grade of pesticide damage); design: key to damage levels rated at grade: grade 0 means that the growth status of plants is essentially consistent with those sprayed with the blank solvent (water); grade 1 means that the average of the damage levels of plants is less than 10%; grade 2 means that the average of the damage levels of plants is greater than 100%; grade 3 means that the average of the damage levels of plants is 100%; details: for The grade of pesticide damage/plant: grade 0 / The grade of pesticide damage/plant: grade 1 / The grade of pesticide damage/plant: grade 2 / The grade of pesticide damage/plant: grade 3: 7 DAT, number of plants of 16 per genotype, grades
[2] = test system: transgenic soybean plants; experiment: oxyfluorfen tolerance of transgenic soybean plants (spray, grade of pesticide damage); details: for The grade of pesticide damage/plant: grade 0 / The grade of pesticide damage/plant: grade 1 / The grade of pesticide damage/plant: grade 2 / The grade of pesticide damage/plant: grade 3: 7 DAT, number of plants of 16 per genotype, grades; for tolerance to oxyfluorfen: soybean
[3] = test system: transgenic soybean plants; experiment: flumioxazin tolerance of transgenic soybean plants (spray, grade of pesticide damage); details: for The grade of pesticide damage/plant: grade 0 / The grade of pesticide damage/plant: grade 1 / The grade of pesticide damage/plant: grade 2 / The grade of pesticide damage/plant: grade 3: 7 DAT, number of plants of 16 per genotype, grades
[4] = test system: Arabidopsis thaliana T1 plants; experiment: flumioxazin tolerance of transgenic Arabidopsis thaliana T1 plants (spray, grade of pesticide damage); details: 7 DAT, number of plants of 24 per genotype, grades
Outline: (§1)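 Herbicide rates in g ai/ha are as follows: oxyfluorfen 180 or 720, saflufenacil 25 or 100, flumioxazin 60 or 240, sulfentrazone 450 or 900, each against a water control. Sprays go onto PPO-transgenic T1 plants at 18 days. At 7 DAT, leaf-area injury is graded 0–3, with grades 0–1 counted as highly resistant.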

[5] = test system: Arabidopsis thaliana T1 plants; experiment: saflufenacil tolerance of transgenic Arabidopsis thaliana T1 plants (spray, grade of pesticide damage); details: 7 DAT, number of plants of 24 per genotype, grades
Outline: as §1

[6] = test system: Arabidopsis thaliana T1 plants; experiment: sulfentrazone tolerance of transgenic Arabidopsis thaliana T1 plants (spray, grade of pesticide damage); details: 7 DAT, number of plants of 24 per genotype, grades
Outline: as §1

[7] = test system: Arabidopsis thaliana T1 plants; experiment: oxyfluorfen tolerance of transgenic Arabidopsis thaliana T1 plants (spray, grade of pesticide damage); details: 7 DAT, number of plants of 24 per genotype, grades
Outline: as §1

B1: PPO12A: nucleotide sequence encoding microbial protoporphyrinogen oxidase PPO12 (SEQ ID NO:12), Arabidopsis thaliana/soybean common codon usage bias (nucleic acid)
DNA: ATGAAGAAAGCTCTTTTCCTGTACAGCTCGAGAGAAGGCCAGACAAAAAAGATTCTCAACTACATAGAAGGAGAGTTATCAAATTTTGAATGTGAATTGGTTGACCTTCACACGCTTGATGCTATTGATTTCTCCGTCTATGATCGGGTGCTCATTGGTGCTTCTATACGATATGGTCATTTGAACAAGAAGCTTTATCAGTTTATAGAGAACAACAGACAACAACTAGAGAATCATACCAAAGTTGCCTTCTTCTGCGTCAATCTTACTGCAAGGAAAGAAGATCAAGGAAAAGACACTCCTGAGGGGAGTGTTTACATCCAGAAATTTCTCAAGAAATCACCATGGCAACCGAAGTTGATTGGAGTTTTCGCGGGGGCATTATACTACCCTCGTTATGGATTCTTTGATAAGATGATGATCAAACTCATCATGACTTTAACTGATGGTGAAACCGACACAACAAAGGAAGTGGAGTATACAAATTGGAAAAAAGTATCTTTGTTTGCAAAGAAGTTTGCTGAGCTGTGA
modifications: The nucleotide sequence of PPO12A
The grade of pesticide damage/plant: grade 0 ([1]; saflufenacil 50 g ai/ha (2×)): 16 plant
The grade of pesticide damage/plant: grade 1 ([1]; saflufenacil 50 g ai/ha (2×)): 0 plant
The grade of pesticide damage/plant: grade 2 ([1]; saflufenacil 50 g ai/ha (2×)): 0 plant
The grade of pesticide damage/plant: grade 3 ([1]; saflufenacil 50 g ai/ha (2×)): 0 plant
The grade of pesticide damage/plant: grade 0 ([1]; saflufenacil 100 g ai/ha (4×)): 16 plant
The grade of pesticide damage/plant: grade 1 ([1]; saflufenacil 100 g ai/ha (4×)): 0 plant
The grade of pesticide damage/plant: grade 2 ([1]; saflufenacil 100 g ai/ha (4×)): 0 plant
The grade of pesticide damage/plant: grade 3 ([1]; saflufenacil 100 g ai/ha (4×)): 0 plant
tolerance to saflufenacil ([1]; soybean, saflufenacil at four-fold field concentration (100 g ai/ha)): high-resistant tolerance
damage levels rated at grade ([1]; soybean, saflufenacil at two-fold field concentration (50 g ai/ha)): 0
tolerance to saflufenacil ([1]; soybean, saflufenacil, compared with the control vector and CK): different extents of tolerance
The grade of pesticide damage/plant: grade 0 ([2]; oxyfluorfen 360 g ai/ha (2×)): 16 plant
The grade of pesticide damage/plant: grade 1 ([2]; oxyfluorfen 360 g ai/ha (2×)): 0 plant
The grade of pesticide damage/plant: grade 2 ([2]; oxyfluorfen 360 g ai/ha (2×)): 0 plant
The grade of pesticide damage/plant: grade 3 ([2]; oxyfluorfen 360 g ai/ha (2×)): 0 plant
The grade of pesticide damage/plant: grade 0 ([2]; oxyfluorfen 720 g ai/ha (4×)): 16 plant
The grade of pesticide damage/plant: grade 1 ([2]; oxyfluorfen 720 g ai/ha (4×)): 0 plant
The grade of pesticide damage/plant: grade 2 ([2]; oxyfluorfen 720 g ai/ha (4×)): 0 plant
The grade of pesticide damage/plant: grade 3 ([2]; oxyfluorfen 720 g ai/ha (4×)): 0 plant
tolerance to oxyfluorfen ([2]; oxyfluorfen at four-fold field concentration (720 g ai/ha)): high-resistant tolerance
tolerance to oxyfluorfen ([2]; oxyfluorfen at two-fold field concentration (360 g ai/ha)): high-resistant tolerance
The grade of pesticide damage/plant: grade 0 ([3]; flumioxazin 120 g ai/ha (2×)): 16 plant
The grade of pesticide damage/plant: grade 1 ([3]; flumioxazin 120 g ai/ha (2×)): 0 plant
The grade of pesticide damage/plant: grade 2 ([3]; flumioxazin 120 g ai/ha (2×)): 0 plant
The grade of pesticide damage/plant: grade 3 ([3]; flumioxazin 120 g ai/ha (2×)): 0 plant
The grade of pesticide damage/plant: grade 0 ([3]; flumioxazin 240 g ai/ha (4×)): 16 plant
The grade of pesticide damage/plant: grade 1 ([3]; flumioxazin 240 g ai/ha (4×)): 0 plant
The grade of pesticide damage/plant: grade 2 ([3]; flumioxazin 240 g ai/ha (4×)): 0 plant
The grade of pesticide damage/plant: grade 3 ([3]; flumioxazin 240 g ai/ha (4×)): 0 plant
tolerance to flumioxazin ([3]; soybean, flumioxazin at different concentrations (120 and 240 g ai/ha)): high-resistant tolerance
The grade of pesticide damage/plant: grade 0 ([4]; flumioxazin 60 g ai/ha (1×)): 24 plant
The grade of pesticide damage/plant: grade 1 ([4]; flumioxazin 60 g ai/ha (1×)): 0 plant
The grade of pesticide damage/plant: grade 2 ([4]; flumioxazin 60 g ai/ha (1×)): 0 plant
The grade of pesticide damage/plant: grade 3 ([4]; flumioxazin 60 g ai/ha (1×)): 0 plant
The grade of pesticide damage/plant: grade 0 ([4]; flumioxazin 240 g ai/ha (4×)): 24 plant
The grade of pesticide damage/plant: grade 1 ([4]; flumioxazin 240 g ai/ha (4×)): 0 plant
The grade of pesticide damage/plant: grade 2 ([4]; flumioxazin 240 g ai/ha (4×)): 0 plant
The grade of pesticide damage/plant: grade 3 ([4]; flumioxazin 240 g ai/ha (4×)): 0 plant
The grade of pesticide damage/plant: grade 0 ([5]; saflufenacil 25 g ai/ha (1×)): 24 plant
The grade of pesticide damage/plant: grade 1 ([5]; saflufenacil 25 g ai/ha (1×)): 0 plant
The grade of pesticide damage/plant: grade 2 ([5]; saflufenacil 25 g ai/ha (1×)): 0 plant
The grade of pesticide damage/plant: grade 3 ([5]; saflufenacil 25 g ai/ha (1×)): 0 plant
The grade of pesticide damage/plant: grade 0 ([5]; saflufenacil 100 g ai/ha (4×)): 0 plant
The grade of pesticide damage/plant: grade 1 ([5]; saflufenacil 100 g ai/ha (4×)): 24 plant
The grade of pesticide damage/plant: grade 2 ([5]; saflufenacil 100 g ai/ha (4×)): 0 plant
The grade of pesticide damage/plant: grade 3 ([5]; saflufenacil 100 g ai/ha (4×)): 0 plant
The grade of pesticide: grade 0 ([6]; sulfentrazone 450 g ai/ha (1×)): 24
The grade of pesticide: grade 1 ([6]; sulfentrazone 450 g ai/ha (1×)): 0
The grade of pesticide: grade 2 ([6]; sulfentrazone 450 g ai/ha (1×)): 0
The grade of pesticide: grade 3 ([6]; sulfentrazone 450 g ai/ha (1×)): 0
The grade of pesticide: grade 0 ([6]; sulfentrazone 900 g ai/ha (2×)): 23
The grade of pesticide: grade 1 ([6]; sulfentrazone 900 g ai/ha (2×)): 1
The grade of pesticide: grade 2 ([6]; sulfentrazone 900 g ai/ha (2×)): 0
The grade of pesticide: grade 3 ([6]; sulfentrazone 900 g ai/ha (2×)): 0
The grade of pesticide damage/plant: grade 0 ([7]; oxyfluorfen 180 g ai/ha (1×)): 24 plant
The grade of pesticide damage/plant: grade 1 ([7]; oxyfluorfen 180 g ai/ha (1×)): 0 plant
The grade of pesticide damage/plant: grade 2 ([7]; oxyfluorfen 180 g ai/ha (1×)): 0 plant
The grade of pesticide damage/plant: grade 3 ([7]; oxyfluorfen 180 g ai/ha (1×)): 0 plant
The grade of pesticide damage/plant: grade 0 ([7]; oxyfluorfen 720 g ai/ha (4×)): 20 plant
The grade of pesticide damage/plant: grade 1 ([7]; oxyfluorfen 720 g ai/ha (4×)): 4 plant
The grade of pesticide damage/plant: grade 2 ([7]; oxyfluorfen 720 g ai/ha (4×)): 0 plant
The grade of pesticide damage/plant: grade 3 ([7]; oxyfluorfen 720 g ai/ha (4×)): 0 plant
